# Tests used:
# Test in all cases: SEC
# [1] = biological target: PriRep5 K591A (Staphylococcus aureus (SaPI5, strain USA300))
# [2] = biological target: PriRep5-ΔCTD (residues 676-790 removed) (Staphylococcus aureus (SaPI5, strain USA300))
# [3] = biological target: Rep1 Triple Mutant (R248A-Y251A-K253A) (Staphylococcus aureus (SaPI1)) (UniProt Q8GNZ1)
substance,measurement,setting,value
PriRep5 K591A (natural protein),stoichiometry N,[1],6
PriRep5-ΔCTD (residues 676-790 removed) (domain or fragment),stoichiometry N,[2],6
Rep1 Triple Mutant (R248A-Y251A-K253A) (from UniProt Q8GNZ1 1-66) (natural protein),stoichiometry N,[3],6
